Usually EC50 stands for the concentration that produces a half-maximal response. As usually defined, the Kd is the equilibrium constant for the complex coming apart. By koff is commonly meant the rate constant with which the complex falls apart. The term kon denotes the rate constant with which the complex forms.

The values that follow come from patent US20200399369A1 (Sanofi, published 2020).

Experiment [1] addresses T1, Human CD3 (human).
T1 chain: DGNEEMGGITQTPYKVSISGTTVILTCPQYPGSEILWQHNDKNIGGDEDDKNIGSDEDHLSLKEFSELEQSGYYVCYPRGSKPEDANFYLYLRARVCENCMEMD
In words: ELISA, antigen-coated plate.
Method: (§1) Binding affinities to each target antigen by the CD38/CD28×CD3 T cell engagers were measured by ELISA. Briefly, each antigen was used to coat the 96-well Immuno Plate (Thermo Fisher Scientific) overnight at 4° C. using 200 ng/well in PBS (pH7.4) of each antigen. The coated plate was blocked using 5% skim milk+2% BSA in PBS for one hour at RT, followed by washing with PBS+0.25% Tween 20 three times (Aqua Max 400, Molecular Devices). Serial dilution of antibodies (trispecific and control Abs) were prepared and added onto the ELISA plates (100 μl/well in duplicate), incubated at room temperature (RT) for one hour, followed by washing 5 times with PBS+0.25% Tween 20. […] The reaction was terminated by adding 50 μl 1M H₂SO₄, and OD450 was measured using SpectraMax M5 (Molecular Devices) and analyzed using SoftMax Pro6.3 software (Molecular Devices). The final data was transferred to GraphPad Prism software (GraphPad Software, CA, USA), and plotted. EC50 was calculated using the same software.
(§2) The binding affinities of selected CD38/CD28sup×CD3mid_ENLQ DKTHT IgG4 FALA trispecific antibodies with alternative anti-CD38 binding domains for human CD3, human CD28, human CD38 and cynomolgus monkey CD38 were then determined by ELISA as described above.

In experiment [2] the target is T2, Human CD28 (human, UniProt P10747 19-152, limits assumed).
T2 construct: also called hCD28
The experiment can be described thus: ELISA, antigen-coated plate.
Method: as §1, §2

The target of experiment [3] is T3, cynomolgus monkey CD38 (cynomolgus monkey, UniProt Q5VAN0 44-301, limits assumed).
T3 construct: also called Cyno CD38; cynoCD38
In words: ELISA, antigen-coated plate.
Method: as §1, §2

Experiment [4] concerns the target T4, human CD38 (human, UniProt P28907 43-300, limits assumed).
T4 construct: also called hCD38; huCD38
In words: ELISA, antigen-coated plate.
Method: as §1, §2

Experiment [5] concerns the target T5, Human CD38-His (human, UniProt P28907 43-300, limits assumed).
T5 construct: Bought antigen; also called human CD38 (SPR antigen); not shown: His tag
In words: SPR (BIACORE 3000), capture format, 1:1 Langmuir model.

The target in experiment [6] is T6, human CD38 on tumor cell lines NCI-H929 (CD38+/CD28+) and OCI-LY19 (CD38+/CD28-) (human, UniProt P28907 1-300). The experiment can be described thus: cell-based or functional assay.
In experiment [7] the target is T6, human CD38 on tumor cell lines NCI-H929 …. In words: cell-based or functional assay. The source holds these as a separate data set.

B1: CD38VH1/CD28sup x CD3mid_ENLQ DKTHT IgG4 FALA (other)
light 1: DIVMTQTPLSLSVTPGQPASISCKSSQSLVHENLQTYLSWYLQKPGQSPQSLIYKVSNRFSGVPDRFSGSGSGTDFTLKISRVEAEDVGVYYCGQGTQYPFTFGSGTKVEIKDKTHTDIQMTQSPSSLSASVGDRVTITCQASQNIYVWLNWYQQKPGKAPKLLIYKASNLHTGVPSRFSGSGSGTDFTLTISSLQPEDIATYYCQQGQTYPYTFGQGTKLEIKDKTHTRTVAAPSVFIFPPSDEQLKSGTASVVCLLNNFYPREAKVQWKVDNALQSGNSQESVTEQDSKDSTYSLSSTLTLSKADYEKHKVYACEVTHQGLSSPVTKSFNRGEC
heavy 1: QVQLVQSGAEVVKPGASVKVSCKASGYTFTSYYIHWVRQAPGQGLEWIGSIYPGNVNTNYAQKFQGRATLTVDTSISTAYMELSRLRSDDTAVYYCTRSHYGLDWNFDVWGKGTTVTVSSDKTHTQVQLVESGGGVVQPGRSLRLSCAASGFTFTKAWMHWVRQAPGKQLEWVAQIKDKSNSYATYYADSVKGRFTISRDDSKNTLYLQMNSLRAEDTAVYYCRGVYYALSPFDYWGQGTLVTVSSDKTHTASTKGPSVFPLAPCSRSTSESTAALGCLVKDYFPEPVTVSWNSGALTSGVHTFPAVLQSSGLYSLSSVVTVPSSSLGTKTYTCNVDHKPSNTKVDKRVESKYGPPCPPCPAPEAAGGPSVFLFPPKPKDTLMISRTPEVTCVVVDVSQEDPEVQFNWYVDGVEVHNAKTKPREEQFNSTYRVVSVLTVLHQDWLNGKEYKCKVSNKGLPSSIEKTISKAKGQPREPQVCTLPPSQEEMTKNQVSLSCAVKGFYPSDIAVEWESNGQPENNYKTTPPVLDSDGSFFLVSKLTVDKSRWQEGNVFSCSVMHEALHNHYTQKSLSLSLG
heavy 2: QVQLVQSGAEVVKPGASVKVSCKASGYTFTSYAMHWVKEAPGQRLEWIGYIYPGQGGTNYNQKFQGRATLTADTSASTAYMELSSLRSEDTAVYFCARTGGLRRAYFTYWGQGTLVTVSSASTKGPSVFPLAPCSRSTSESTAALGCLVKDYFPEPVTVSWNSGALTSGVHTFPAVLQSSGLYSLSSVVTVPSSSLGTKTYTCNVDHKPSNTKVDKRVESKYGPPCPPCPAPEAAGGPSVFLFPPKPKDTLMISRTPEVTCVVVDVSQEDPEVQFNWYVDGVEVHNAKTKPREEQFNSTYRVVSVLTVLHQDWLNGKEYKCKVSNKGLPSSIEKTISKAKGQPREPQVYTLPPCQEEMTKNQVSLWCLVKGFYPSDIAVEWESNGQPENNYKTTPPVLDSDGSFFLYSKLTVDKSRWQEGNVFSCSVMHEALHNHYTQKSLSLSLG
light 2: DIVLTQSPATLSLSPGERATISCRASQSVSSYGQGFMHWYQQKPGQPPRLLIYGASSRATGIPARFSGSGSGTDFTLTISPLEPEDFAVYYCQQNKEDPWTFGGGTKLEIKRTVAAPSVFIFPPSDEQLKSGTASVVCLLNNFYPREAKVQWKVDNALQSGNSQESVTEQDSKDSTYSLSSTLTLSKADYEKHKVYACEVTHQGLSSPVTKSFNRGEC
notes: Trispecific antibody; also called BP # 1
Take B1: in experiment [1], a half-maximal response (EC50) required 6.74 nM. This molecule also returned an EC50 in experiment [2] of 0.725 nM. Moreover, in experiment [3], the concentration giving a half-maximal response (EC50) was determined as 2.13 nM. Moreover, in experiment [4], the EC50 is 7.24 nM. In experiment [5], this molecule showed an equilibrium dissociation constant (Kd) of 2.85 nM, an off-rate (koff) of 0.00158 s⁻¹ and a kon of 555000 M⁻¹ s⁻¹. Further, in experiment [6], the “EC50 of in vitro killing of NCI-H929 (CD38+/CD28+) cells, With Dara” value was found to be 0.0298 nM and the “EC50 of in vitro killing of NCI-H929 (CD38+/CD28+) cells, With human IgG1” value was determined as 0.00106 nM. Besides, in experiment [7], the “EC50 of in vitro killing of OCI-LY19 (CD38+/CD28-) cells, With Dara” value was found to be 0.136 nM and the “EC50 of in vitro killing of OCI-LY19 (CD38+/CD28-) cells, With human IgG1” value was determined as 0.00566 nM.
